B1: human HAdV-11 fiber knob, wild type (domain or fragment)
chain: DDNINTLWTGVNPTEANCQIMNSSESNDCKLILTLVKTGALVTAFVYVIGVSNNFNMLTTHRNINFTAELFFDSTGNLLTRLSSLKTPLNHKSGQNMATGAITNAKGFMPSTTAYPFNDNSREKENYIYGTCYYTASDRTAFPIDISVMLNRRAINDETSYCIRITWSWNTGDAPEVQTSATTLVTSPFTFYYIREDD
notes: HAdV-11 fiber protein, knob, residues D128 to D325 of Swiss-Prot P35774; gene synthesised by GenScript; Trimeric form purified; amine-coupled to the biosensor in the kinetic BLI; also called HAd11K; HAd11 knob; not shown: His6, N-terminal, kept
B2: recombinant DSG2 EC2-EC3 extracellular domains (domain or fragment, human, UniProt Q14126 149-386, looked up)
chain: VLDINDNEPVFTQDVFVGSVEELSAAHTLVMKINATDADEPNTLNSKISYRIVSLEPAYPPVFYLNKDTGEIYTTSVTLDREEHSSYTLTVEARDGNGEVTDKPVKQAQVQIRILDVNDNIPVVENKVLEGMVEENQVNVEVTRIKVFDADEIGSDNWLANFTFASGNEGGYFHIETDAQTNEGIVTLIKEVDYEEMKNLDFSVIVANKAAFHKSIRSKYKPTPIPIKVKVKNVKEGI
notes: desmoglein 2 (DSG2), human, EC2-EC3 domains, residues V149-I386 of Swiss-Prot Q14126.2; Cloned AgeI/KpnI in pHL-sec, which supplies a secretion signal and the C-terminal His6; also called rDSG2; soluble rDSG2; source: HEK293 F, transiently transfected, secreted, purified from supernatant (His GraviTrap, Superdex 200)

Key:
[1] = target: B2; experiment: BLI; HAd11K (WT or D265A), 100 µg/mL in 10 mM sodium acetate pH 4, amine-coupled to AR2G biosensor; rDSG2 or rCD46 0.7-10.8 µM in HBS-P (10 mM HEPES, 145 mM NaCl, 0.005% P20, pH 7.4) with 3 mM CaCl2; room temperature; association 180 s, dissociation 120 s; global fit; settings: both partners purified
[2] = target: the molecule itself; experiment: cryo-EM structure; HAd11K in complex with rDSG2; two populations (one or two rDSG2 per knob trimer)
[3] = target: B1; experiment: cryo-EM structure; SEC fraction of HAd11K/rDSG2/rCD46 super-complex (rDSG2:rCD46 3:1); settings: both partners purified
[4] = target: B1; experiment: BLI; HAd11K (WT or D265A), 100 µg/mL in 10 mM sodium acetate pH 4, amine-coupled to AR2G biosensor; rDSG2 or rCD46 0.7-10.8 µM in HBS-P (10 mM HEPES, 145 mM NaCl, 0.005% P20, pH 7.4) with 3 mM CaCl2; room temperature; association 180 s, dissociation 120 s; global fit; settings: both partners purified

Binder	Kd [1]	koff [1]	kon [1]	stoichiometry N [2]	stoichiometry N [3]	Kd [4]	koff [4]	kon [4]
B1	2900 nM	0.114 s⁻¹	39400 M⁻¹ s⁻¹	3	–	–	–	–
recombinant CD46 SCR1-SCR2 domains (domain or fragment, human, UniProt P15529 35-160, looked up, hCD46, the two first extracellular domains (SCR1, SCR2), residues C35-V160 of Swiss-Prot P15529; gene synthesised by GenScript; Cloned in the same vector pHL-sec as rDSG2 (secretion signal, C-terminal His6); also called rCD46; soluble rCD46; source: HEK293 F, transiently transfected, secreted, purified from supernatant (His GraviTrap, Superdex 200)) CEEPPTFEAMELIGKPKPYYEIGERVDYKCKKGYFYIPPLATHTICDRNHTWLPVSDDACYRETCPYIRDPLNGQAVPANGTYEFGYQMHFICNEGYYLIGEEILYCELKGSVAIWSGKPPICEKV	–	–	–	–	1	243 nM	0.005 s⁻¹	22800 M⁻¹ s⁻¹
B2	–	–	–	–	1	–	–	–
